This note sets out measurements from publication PMC3365070, “Overexpression of a Maize Sulfite Oxidase Gene in Tobacco Enhances Tolerance to Sulfite Stress via Sulfite Oxidation and CAT-Mediated H2O2 Scavenging” (PLoS ONE, 2012).

Substrate in the data set: O=S(O)O
The data set is described as follows: purified protein. Type of data set: biochemical, Zea mays. To be noted: 400 µM ferricyanide as electron acceptor, sulfite 2.5-400 µM, 20 mM Tris-HCl pH 8.0 (general SO assay).

B1: ZmSO (recombinant maize sulfite oxidase) (Zea mays subsp. mays) (protein)
chain: MPGLTAPSDYAEEPPRHPALKINSKEPFNAEPHRSELVASYITPVDFFYKRNHGPIPKVEDLSRYTVSISGLVNKSIQLSMADIWSLPKYNVTATLQCAGNRRTAMSNVRKVRGVGWDISALGTATWGGAKLSDVLELVGIPKLSSVTSLGGKHVEFVSVDKCKEEKGGPYTASIPLNQATNPDADVLLAYEMNGEVLNRDHGYPLRVVVPGVIGARSVKWLDSINVKEEECQGFFMQKDYKMFPPTVDWDNINWSTRRPQMDFPVQSAICTLEDVDVIKEGQARIAGYALSGGGRGIERVDVSADGGKTWVEARRYQKDNVAYVSDGPQSDKWAWVLFEATLDVPANPEIVVKAVDSAANVQPEKVEDIWNLRGILNTSWHRIKIQRSSCVERSKL
notes: 45 kDa; Mo domain, no heme domain; primers give N-terminus MPGLTA
As to B1, the Michaelis-Menten constant (Km) worked out at 21.4 ± 0.32 µM.

Broadly, the Km is the substrate concentration at which the rate is half of its maximum.
